Substitutions are numbered along the chain they refer to.
B1: P9-11 (antibody, IgG1, V domains shown)
VH: EVQLVESGGGLVQPGGSLRLSCAASGFTFSSYYIHWVRQAPGKGLEWVAYISPSGGYTYYADSVKGRFTISADTSKNTAYLQMNSLRAEDTAVYYCARGAVLYSSAMDYWGQGTLVTVSS
VL: DIQMTQSPSSLSASVGDRVTITCRASQSVSSAVAWYQQKPGKAPKLLIYSASSLYSGVPSRFSGSRSGTDFTLTISSLQPEDFATYYCQQYYPSPSTFGQGTKVEIKR
notes: Tested as bivalent monospecific native human full-length IgG1; also called ABS clone P9-11
B2: P9-24 (antibody, IgG1, V domains shown)
VH: EVQLVESGGGLVQPGGSLRLSCAASGFTFSSYFIHWVRQAPGKGLEWVASIYPTSHSTSYADSVKGRFTISADTSKNTAYLQMNSLRAEDTAVYYCARLGYPGVMDYWGQGTLVTVSS
VL: B1 VL with Y91V, Y92D, P93S, S94R, P95L, S96A
notes: Tested as bivalent monospecific native human full-length IgG1; also called ABS clone P9-24
B3: P9-37 (antibody, IgG1, V domains shown)
VH: EVQLVESGGGLVQPGGSLRLSCAASGFTFWKYGIHWVRQAPGKGLEWVAYIYPAGGITSYADSVKGRFTISADTSKNTAYLQMNSLRAEDTAVYYCARSDYYSGMGMDYWGQGTLVTVSS
VL: B1 VL
notes: Tested as bivalent monospecific native human full-length IgG1; also called ABS clone P9-37
B4: P9-34 (antibody, IgG1, V domains shown)
VH: B2 VH with S31T, S50Y, T54Q, S55G, H56G, S57Y, S59Y, L99Q, G100S, M105F
VL: B1 VL with Y91W, Y92T, P93I, S94A, P95L, S96T
B5: P9-57 (antibody, IgG1, V domains shown)
VH: B2 VH with F33Y, S50T, T54S, S55G, H56G, S57Y, S59Y, L99Y, G100S, M105L
VL: B1 VL with Y91S, Y92S, P93S, S94F, P95L, S96W
notes: Tested as bivalent monospecific native human full-length IgG1; also called ABS clone P9-57
B6: P9-50 (antibody, IgG1, V domains shown)
VH: EVQLVESGGGLVQPGGSLRLSCAASGFTFSSYVIHWVRQAPGKGLEWVALIYSSGGYTQYADSVKGRFTISADTSKNTAYLQMNSLRAEDTAVYYCARVGTTYPSRYLEALDYWGQGTLVTVSS
VL: B1 VL with Y91F, Y92G, P93S, P95L, S96P
notes: Tested as bivalent monospecific native human full-length IgG1; Heavy chain copied as printed: it ends 'SLSPG' without the last K; also called ABS clone P9-50
B7: P9-25 (antibody, IgG1, V domains shown)
VH: B2 VH with F33Y, T54Y, S55G, H56S, S57Y, S59Y, P102S, G103S, V104G
VL: B1 VL with Y91W, Y92A, S94D, P95L, S96T
notes: Tested as bivalent monospecific native human full-length IgG1; also called ABS clone P9-25

The binders below were run against human GAL9 of the human PBMC cultures (human) (assay: cell-based or functional assay).

INF-γ 72 hr, Fold change, Average [fold] | INF-γ 72 hr, Fold change, Donor 19 [fold] | INF-γ 72 hr, Fold change, Donor 25 [fold] | INF-γ 72 hr, Fold change, Donor 27 [fold] | INF-γ 72 hr, Fold change, as % [%] | INF-γ 72 hr, pg/ml, Donor 19 (HCMV-peptide stimulated PBMCs) [pg/mL] | INF-γ 72 hr, pg/ml, Donor 25 (HCMV-peptide stimulated PBMCs) [pg/mL] | INF-γ 72 hr, pg/ml, Donor 27 (HCMV-peptide stimulated PBMCs) [pg/mL] | Binder
0.68 | 0.99 | 0.52 | 0.53 | 68.2 | 5890 | 23000 | 891 | B1
0.8 |  | 0.82 | 0.78 | 87.6 |  | 35700 | 1260 | B2
0.55 | 0.55 |  |  | 54.6 | 3230 |  |  | B3
0.88 |  | 1.01 | 0.74 | 87.6 |  | 44400 | 1050 | B4
0.83 | 0.83 |  |  | 83.4 | 4940 |  |  | B5

Molecular target: human GAL9 of the human PBMC cultures (human)
Test: cell-based or functional assay
Remark: another data set of the same source

TNF-α 72 hr, Fold change, Average [fold] | TNF-α 72 hr, Fold change, Donor 19 [fold] | TNF-α 72 hr, Fold change, Donor 25 [fold] | TNF-α 72 hr, Fold change, Donor 27 [fold] | TNF-α 72 hr, Fold change, as % [%] | TNF-α 72 hr, pg/ml, Donor 19 (HCMV-peptide stimulated PBMCs) [pg/mL] | TNF-α 72 hr, pg/ml, Donor 25 (HCMV-peptide stimulated PBMCs) [pg/mL] | TNF-α 72 hr, pg/ml, Donor 27 (HCMV-peptide stimulated PBMCs) [pg/mL] | Binder
0.64 | 0.78 | 0.76 | 0.4 | 64.7 | 607 | 982 | 374 | B1
0.54 |  | 0.75 | 0.32 | 53.5 |  | 962 | 299 | B2
0.55 | 0.55 |  |  | 55.2 | 429 |  |  | B3
0.74 |  | 0.68 | 0.79 | 73.7 |  | 874 | 596 | B4
0.54 | 0.54 |  |  | 53.7 | 417 |  |  | B5

These binders were tested against Human GAL9 protein (Acro Biosystems, Human Gal9 His-tag Cat #LG9-H5244) (human) (assay: Octet BLI, IgG1 immobilised on biosensor, GAL9 analyte dilution series, global fit (monovalent affinity)).
Human GAL9 protein (Acro Biosystems, Human Gal9 His-tag Cat #LG9-H5244) (human), sequence (chain, as listed by the source): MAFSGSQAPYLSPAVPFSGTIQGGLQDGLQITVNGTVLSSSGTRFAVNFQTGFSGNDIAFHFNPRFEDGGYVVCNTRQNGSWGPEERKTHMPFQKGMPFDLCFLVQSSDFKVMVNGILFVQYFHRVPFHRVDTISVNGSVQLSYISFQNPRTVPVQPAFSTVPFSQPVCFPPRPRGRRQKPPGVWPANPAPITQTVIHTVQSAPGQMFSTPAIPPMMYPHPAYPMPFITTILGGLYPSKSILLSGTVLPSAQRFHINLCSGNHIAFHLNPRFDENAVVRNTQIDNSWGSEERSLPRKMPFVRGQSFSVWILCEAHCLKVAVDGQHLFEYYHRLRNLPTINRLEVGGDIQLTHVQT

Kd [nM] | Binder
6.55 | B1
5.41 | B2
1.21 | B6
4.54 | B3
3.48 | B7
2.56 | B5

Reference: US20220227873A1 (COUNCIL OF THE QUEENSLAND INSTITUTE OF MEDICAL RESEARCH, published 2022)
